Bridge positions count the residues as written; N and C are the ends. Square brackets hold non-standard residues; d marks the D form. Primed or numbered codes have the meaning given here. Ends that are not written are not given here. * marks the point of attachment. Man9GlcNAc2 = CC(=O)N[C@@H]1[C@@H](O)[C@H](O[C@@H]2O[C@H](CO)[C@@H](O[C@@H]3O[C@H](CO[C@H]4O[C@H](CO[C@H]5O[C@H](CO)[C@@H](O)[C@H](O)[C@@H]5O[C@H]5O[C@H](CO)[C@@H](O)[C@H](O)[C@@H]5O)[C@@H](O)[C@H](O[C@H]5O[C@H](CO)[C@@H](O)[C@H](O)[C@@H]5O[C@H]5O[C@H](CO)[C@@H](O)[C@H](O)[C@@H]5O)[C@@H]4O)[C@@H](O)[C@H](O[C@H]4O[C@H](CO)[C@@H](O)[C@H](O)[C@@H]4O[C@H]4O[C@H](CO)[C@@H](O)[C@H](O)[C@@H]4O[C@H]4O[C@H](CO)[C@@H](O)[C@H](O)[C@@H]4O)[C@@H]3O)[C@H](O)[C@H]2NC(C)=O)[C@@H](CO)O[C@H]1*; Hpra′ = its azide, alkyne or alkene has reacted where a group follows in round brackets

The chains are these.
B1: PGT128 (antibody, V domains shown)
VH: QPQLQESGPTLVEASETLSLTCAVSGDSTAACNSFWGWVRQPPGKGLEWVGSLSHCASYWNRGWTYHNPSLKSRLTLALDTPKNLVFLKLNSVTAADTATYYCARFGGEVLRYTDWPKPAWVDLWGRGTLVTVSS
VL: QSALTQPPSASGSPGQSITISCTGTSNNFVSWYQQHAGKAPKLVIYDVNKRPSGVPDRFSGSKSGNTASLTVSGLQTDDEAVYYCGSLVGNWDVIFGGGTKLTVL

Some targets named below: m14; m13; m12.
Test in all cases: BLI
On the technique in general: Biolayer interferometry detects binding as a change in optical thickness at a sensor tip.

Assay [1] concerns the target H1 mutant without the glycan at the first of the three glycosylation sites (peptide 3) (Man9GlcNAc2 by CuAAC on homopropargylglycine at the second and third glycosylation sites only; biotin on the C-terminal lysine).
Assay [2] deals with H1 mutant without the glycans at the second and third glycosylation sites (peptide 4) (Man9GlcNAc2 by CuAAC on homopropargylglycine at the first glycosylation site only; biotin on the C-terminal lysine).
In assay [3] the target is random scrambled version of the H1 sequence containing three glycans and cyclization (peptide 6) (three Man9GlcNAc2 glycans attached by CuAAC on homopropargylglycine (printed as M); cyclized; biotin on the C-terminal lysine).
Assay [4] deals with GB1R-non-glycosylated peptide (12).
The target of assay [5] is B1.
Assay [6] addresses B1. The source holds these as a separate data set.

For B1, the dissociation constant (Kd) amounted to 0.94 nM in assay [1] and 21.1 nM in assay [2]. For the same molecule, the koff in assay [1] was found to be 5.6e-05 s⁻¹; in [2] it was 0.00221 s⁻¹; in assay [3], 0.0132 s⁻¹.

B2: gl-PGT121 (protein)
chain 1: SYVLTQPPSVSVAPGQTARITCGGNNIGSKSVHWYQQKPGQAPVLVVYDDSDRPSGIPERFSGSNSGNTATLTISRVEAGDEADYYCQVWDSSSDHPWVFGGGTKLTVLGQPKAAPSVTLFPPSSEELQANKATLVCLISDFYPGAVTVAWKADSSPVKAGVETTTPSKQSNNKYAASSYLSLTPEQWKSHRSYSCQVTHEGSTVEKTVAPTECS
chain 2: QVQLQESGPGLVKPSETLSLTCTVSGGSISSYYWSWIRQPPGKGLEWIGYIYYSGSTNYNPSLKSRVTISVDTSKNQFSLKLSSVTAADTAVYYCARTQQGKRIYGVVSFGDYYYYYYMDVWGKGTTVTVSSASTKGPSVFPLAPSSKSTSGGTAALGCLVKDYFPEPVTVSWNSGALTSGVHTFPAVLQSSGLYSLSSVVTVPSSSLGTQTYICNVNHKPSNTKVDKRVEPKSCDKTHHHHHH
In the assay with m14, B2 had an equilibrium dissociation constant (Kd) of 570 nM and a koff of 0.00262 s⁻¹. For the same molecule, in assay [4], the dissociation constant (Kd) worked out at 710 nM and the koff came out at 0.00199 s⁻¹.

B3: L1 glycopeptide (peptide 8) (peptide)
chain: SIKLINQ[Hpra′](Man9GlcNAc2)[Hpra′](Man9GlcNAc2)TTNPHLRLHIGDIRRLIKDLY[Hpra′](Man9GlcNAc2)FRVYYRPTNSGRRLFVN
modifications: not fully specified (C-terminus); also: Man9GlcNAc2 attached by CuAAC, biotin on the C-terminal lysine (no K at C-terminus of given chain)
Molecule B3 yielded an off-rate constant (koff) with PGT128 [5] of 0.000645 s⁻¹.

B4: H22 glycopeptide (peptide 2) (peptide)
chain: LFKPYPKIGDIRKARC[Hpra′](Man9GlcNAc2)LQHTLHHRTNKQPSYRRRLKTLIPLFRRC[Hpra′](Man9GlcNAc2)L
modifications: not fully specified (C-terminus); cysteine pairing not given here; also: Man9GlcNAc2 attached by CuAAC, biotin on the C-terminal lysine (no K at C-terminus of given chain)
In the case of B4, in the assay with PGT128 [5], the koff is 0.00635 s⁻¹.

B5: H1 mutant with IGDIR changed to IAAIA (peptide 5) (peptide)
chain: YTEKHNGIAAIAPAIC[Hpra′](Man9GlcNAc2)NSKNQNHRCNHYQIKLYIH[Hpra′](Man9GlcNAc2)L[Hpra′](Man9GlcNAc2)RLPHNYRNS
modifications: not fully specified (C-terminus); cysteine pairing not given here; also: Man9GlcNAc2 attached by CuAAC, biotin on the C-terminal lysine (no K at C-terminus of given chain)
Regarding B5, in the assay with PGT128 [5], the koff was 0.00212 s⁻¹. Besides, the Kd in the assay with PGT128 [6] worked out at 12.4 nM.

B6: m2 (protein)
chain 1: QVHLQESGPGLVKPSETLSLTCNVSGTLVRDNYWSWIRQPLGKQPEWIGYVHDSGDTNYNPSLKSRVHLSLDKSKNLVSLRLTGVTAADSAIYYCATTKHGRRIYGVVAFKEWFTYFYMDVWGKGTSVTVSS
chain 2: APTFVSVAPGQTARITCGEESLGSRSVIWYQQRPGQAPSLIIYNNNDRPSGIPDRFSGSPGSTFGTTATLTITSVEAGDEADYYCHIWDSRRPTNWVFGEGTTLIVL
For B6, the values for the koff with m13 and in the assay with m12 were 0.000202 s⁻¹ and 0.000802 s⁻¹, respectively.

B7: H1 glycopeptide (peptide 1) (peptide)
chain: YTEKHNGIGDIRPAIC[Hpra′](Man9GlcNAc2)NSKNQNHRCNHYQIKLYIH[Hpra′](Man9GlcNAc2)L[Hpra′](Man9GlcNAc2)RLPHNYRNS
modifications: linker 16-26 via m‑dibromoxylene (inferred); not fully specified (C-terminus); also: Man9GlcNAc2 attached by CuAAC, biotin on the C-terminal lysine (no K at C-terminus of given chain)
In turn, B7 yielded a koff with PGT128 [5] of 6.3e-05 s⁻¹.

B8: acyclic H1 variant (peptide 7) (peptide)
chain: YTEKHNGIGDIRPAIC(iodoacetamide)[Hpra′](Man9GlcNAc2)NSKNQNHRC(iodoacetamide)NHYQIKLYIH[Hpra′](Man9GlcNAc2)L[Hpra′](Man9GlcNAc2)RLPHNYRNS
modifications: not fully specified (C-terminus); also: Man9GlcNAc2 attached by CuAAC, biotin on the C-terminal lysine (no K at C-terminus of given chain)
Take B8: the koff with PGT128 [5] turned out to be 0.00616 s⁻¹.

In general, Kd refers to the free concentration of one partner at which half of the binding sites on the other are occupied at equilibrium, for simple one-to-one binding. A word on the koff: it is the rate constant with which the complex falls apart. The low end stands for slow dissociation, the high end for fast dissociation.

The values above are taken from article PMC12291119 (2025).
